The target in the assay is PbTpk2^(226-583)-His6 (P. brasiliensis).

With PbGpb1-GST (natural protein), the in vitro kinase activity (ADP-Glo) of 3 μM PbTpk2 on 50 μM kemptide in the presence of 4 μM PbGpb1, relative to PbTpk2 with kemptide alone came out at 40 % reduction.
